Amyloid nucleation score data for 133 substances are collected here from the supplement of paper PMC12042874.

A short description of the series: amyloid nucleation score (Sup35N fusion, yeast selection) (log enrichment); library NNK3; higher = more nucleation; inactive = no reads after selection. In a few lines: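 The nucleation score is the log enrichment of output over input reads, calculated with DiMSum and centred on the mode score of non-aggregating sequences. Sequences with under 100 input reads were excluded. Reads came from Illumina sequencing of plasmid inserts from psi-negative yeast expressing Sup35N fused to peptides of 20 random codons, induced 24 hours with 100 μM copper sulfate and grown 7 days at 30°C without adenine and uracil.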

± gives the uncertainty stated by the source.

As to CMLSDVIFYIVDDIRMFVGV, the amyloid nucleation score entry was “inactive”.
For FDLVNWYFQRNIVLRQSCCY, the amyloid nucleation score result was “inactive”.
Consider LSISYSIGGDGDMIGNAACV, for which the amyloid nucleation score entry was “inactive”.
Regarding RTLQVWHDWVVG, the amyloid nucleation score is -0.555 ± 0.69.
For WGLTMLRESRVCCKSYNKQG the value was “inactive”.
As for WYACRIQ, the amyloid nucleation score worked out at 0.517 ± 0.23.
With MYGEMYCRFCVVVVGWLQFV, the amyloid nucleation score entry was “inactive”.
As for QRKVSWHAGYSA, the entry is “inactive”; as for GILLRFNKGA, “inactive”.
Turning to YYVVGQPAASQK, the amyloid nucleation score result is “inactive”.
As for CLRVLWLSQLTVSCDF, the amyloid nucleation score was -0.354 ± 1.8.
On to LCIGVDLKPCYGSVDRYVNL, for which the amyloid nucleation score entry was “inactive”.
In the case of YWPIHSSTAETDVTVRTRSY, the amyloid nucleation score stood at 1.01 ± 0.14.
For ALSVSSLALANDDVTG the value was “inactive”; for TACQNDCVGG, “inactive”.
As to LDFKIPRN, the amyloid nucleation score entry was “inactive”.
For FWHENSIAELWICKTLLGKF, the amyloid nucleation score entry is “inactive”.
As for RMILTSQLLQKENGLSVTIN, the figure is 0.853 ± 0.2; as for VYVRG, “inactive”; as for NIIDKW, -0.357 ± 1.4.
For IAYKFWGSNVLDR the value was “inactive”; for VGLVMNCNKFYVLWFDQIGK, 2.27 ± 0.068; for YVIVLNR, 2.3 ± 0.069.
In the case of CQSVLCAKFLVSERH, the amyloid nucleation score result is “inactive”.
As for SAGDTDRRPVFH, the figure is -0.058 ± 1; as for LSISIMWCFIFGYIFMCSRC, “inactive”.
For RMLGLNQYCSMLICTIVNFS the value was 1.19 ± 0.11; for DIYSDWLFIVLRHLVIRVLS, 0.754 ± 0.12.
As for RLMLLVTPAISFMSF, the entry is “inactive”; as for TVNPMIVDPCNW, “inactive”; as for WTEGST, “inactive”.
MVCIDPFNENLVRVRMTVIG: the amyloid nucleation score result was “inactive”.
For TLALSKSMMYQMVINPAIY the value was “inactive”; for VVMACGFLGKRGDSGCLLVM, “inactive”.
Regarding LCFARGLRCTSSVAVESGD, the amyloid nucleation score entry was “inactive”.
For VMNLEPRSHVWYVTVFSHAS the value was 1.68 ± 0.096; for QYDLDWFIGRSNARDGLTDW, “inactive”.
Take CTLMIFGCN: the amyloid nucleation score entry was “inactive”.
Turning to ASAFYRCVGGIVYVHTIVGV, the amyloid nucleation score entry was “inactive”.
Regarding MLWRTDHMYY, the amyloid nucleation score result was “inactive”.
As for TCCVIICEFLRRMVSAQSSL, the figure is 0.758 ± 0.28.
On to MGSGGYNIITDGQSFFSTMA, for which the amyloid nucleation score entry is “inactive”.
NVIRISICRSMRMGLKGCIF had an amyloid nucleation score of 0.732 ± 0.19.
As for TVLLYLNDMVNNNFGFEGSF, the figure is 0.647 ± 0.34.
As for YSWDILSLLRGKETQACICY, the entry is “inactive”; as for VSHLAQHCNRLLLVSMLLGA, “inactive”; as for SCSSCYIELKWLYLRILLDC, “inactive”.
On to QMSFQSSYQVRLFLVPPFQW, for which the amyloid nucleation score came out at 0.412 ± 0.23.
As for WFLVNRDWFLGCQVTGEVLI, the entry is “inactive”; as for NYLNTVPVPGGPMVCMQHRI, “inactive”.
As to LALAVGQRDRVLFVKVPVLR, the amyloid nucleation score entry was “inactive”.
Consider YANQHSPEHQRLSSRLVGTN, for which the amyloid nucleation score entry was “inactive”.
As for MRTLYFPKCMTRLKMHVSSI, the entry is “inactive”; as for NVAAISGILYSLLTFFLSGG, “inactive”; as for YNGYALRF, “inactive”.
For IGKSRFKCMSVVRSRFT the value was “inactive”.
As for PRTSKFVAVAFKV, the entry is “inactive”; as for NGPVGN, “inactive”.
Consider CFVDFYSWWLSITVQGLHNN, for which the amyloid nucleation score result is “inactive”.
Substance RNATIALCAGWVIYDSVFKG had an amyloid nucleation score of 2.27 ± 0.073.
As for KAAEDMRGFHCGARKSIRVD, the entry is “inactive”; as for RHVFFLC, “inactive”.
For PLNNGHLLSMPICKIRLVKA, the amyloid nucleation score entry was “inactive”.
As to SMCPPLQRG, the amyloid nucleation score entry was “inactive”.
For the substance RYLIVVFASC, the amyloid nucleation score entry is “inactive”.
On to MCRMRSW, for which the amyloid nucleation score result is “inactive”.
For DLTLIWMGGAAM the value was 0.826 ± 0.22; for NLSWKGNAQDCLMGSVL, “inactive”.
In the case of LCRGCSLGACGNSGLKYCGW, the amyloid nucleation score result is “inactive”.
As for EKFNCNVFIANWAK, the figure is 0.358 ± 0.36.
As for CLALSGIIIFELKAYLGSWC, the amyloid nucleation score is 1.27 ± 0.12.
Turning to ISLFDNNLRGWMYGVFRSIA, the amyloid nucleation score entry is “inactive”.
As for LCSDLVFHNR, the entry is “inactive”; as for CALYFVWAWWERRRKMYYA, “inactive”.
Regarding CCVMHDE, the amyloid nucleation score result is “inactive”.
As for SSKYISFSTTSYCTGLYRTP, the figure is 0.896 ± 0.16; as for ISLGRCNNDHWRILVGTWSA, “inactive”.
As for CLFSGEGLARKCYSDNS, the amyloid nucleation score result is “inactive”.
YFRSK: the amyloid nucleation score entry was “inactive”.
Consider EMLFPSRICLCIHDVILPRV, for which the amyloid nucleation score result was “inactive”.
In the case of TYEST, the amyloid nucleation score result is “inactive”.
As for QEWVRYYYFVLYFNYVNGSW, the amyloid nucleation score entry is “inactive”.
The substance VIAVSYNFTWFKTSIFN had an amyloid nucleation score of 1.31 ± 0.11.
Take QMYSLWCKKCMFYDGCEGVS: the amyloid nucleation score entry is “inactive”.
Turning to LLGSMVWGYSARYNFRVSQG, the amyloid nucleation score entry was “inactive”.
For PATVNRSWNFGIRFNGARNN the value was -0.404 ± 0.8; for CFFLYCLNFFMRSIERDRDG, 2.24 ± 0.054.
LFITLGAV: the amyloid nucleation score entry was “inactive”.
As for YTLGHRTPMLIYDVAGRPNY, the entry is “inactive”.
Consider IYVGHK, for which the amyloid nucleation score entry was “inactive”.
With LDRKFGLRYNGTSYTCDSMV, the amyloid nucleation score entry was “inactive”.
Turning to TFFNFVDGTSVWRFAGRHIY, the amyloid nucleation score entry is “inactive”.
LKLYTLLDRNSNKRTNAGMS came in with an amyloid nucleation score of -0.469 ± 0.88.
As for LTLLCSDECWVFMSMGDRTF, the entry is “inactive”; as for AYCPKTALEVY, “inactive”.
With PWSHSS, the amyloid nucleation score entry was “inactive”.
For NGYMSRVHLCPKCFRLHGFR, the amyloid nucleation score result was “inactive”.
As for ISPGRAGQVVSLAGHSYQAL, the entry is “inactive”; as for ELSTWLAYYVRLGYWCLIMM, “inactive”; as for KREAFNQALADNHQLQMLYE, 0.615 ± 0.12.
As to YRGVDLYVGVKLIRTYRVVR, the amyloid nucleation score result is “inactive”.
For IVVLNVNTPWSMFQGVGSIQ the value was 2.58 ± 0.085.
For TLCQREPG the value was 0.209 ± 0.71.
The substance SMSPFRKFLTFWNMGPKRTL displayed an amyloid nucleation score of -1.06 ± 2.4.
For NVINSMGLSKQIIPSQVQSS the value was “inactive”.
For NMQVHFIMCARSRLQGNHVS the value was “inactive”; for IAFATFVVTFIMMEEMFFKN, “inactive”.
As for RNTDLL, the entry is “inactive”; as for WLIFELIVSELSTRHHKALD, “inactive”; as for CIQSMRH, “inactive”.
Regarding MGHDHHWSGSDMGS, the amyloid nucleation score entry was “inactive”.
MPKAGVSTVSLSHRKVLTLP registered an amyloid nucleation score of 0.174 ± 1.
As for SFQAWVYFVSRLFLECFSSR, the entry is “inactive”; as for GDMKGSISCIIKKEVINVQC, “inactive”; as for MPFGYICWIGVCFSHD, 1.96 ± 0.081.
Take DVRKRSFIYVCNRSLVVPFR: the amyloid nucleation score entry was “inactive”.
For YRSNEFISD the value was “inactive”.
As for CRLYEDIGISYMVATNQLEY, the entry is “inactive”.
VLGNRRFSGLFGEYQGKTTG: the amyloid nucleation score was -0.593 ± 1.1.
For the substance YRYRACSSNFYVTVFGQLHV, the amyloid nucleation score came out at 2.33 ± 0.063.
Consider YCAGWFFMFSV, for which the amyloid nucleation score was 0.586 ± 0.2.
Turning to QFIINDSFYINQNNRRYSKV, the amyloid nucleation score result was “inactive”.
As for YKTYKYERLCIFVLSQRESI, the amyloid nucleation score entry is “inactive”.
As for RMDETWNITRKNWQDSY, the entry is “inactive”; as for RHLLTISKPEMMCGDADEYR, “inactive”.
Turning to RRFCRYVYEMG, the amyloid nucleation score entry is “inactive”.
On to YYGLAVWSERNVRWMGEGEA, for which the amyloid nucleation score entry is “inactive”.
As for ITESIVQFLAFWVRDTDYVC, the entry is “inactive”; as for NWWFPTFVRVFIYEVGLVLK, “inactive”; as for DEMPRVSMRVNNMPGCDNDE, “inactive”.
As for WYLIFGCRASWGSWR, the figure is -0.039 ± 0.61; as for RGVAVR, 1.89 ± 0.077.
For CYHAFRCSGLARACVENINW the value was “inactive”.
